From paper PMC6656783, “ABCE1 Controls Ribosome Recycling by an Asymmetric Dynamic Conformational Equilibrium” (Cell Reports, 2019)

What was measured:
[1] = target: 30S ribosomal subunit from Sulfolobus solfataricus (Sulfolobus solfataricus); assay: burst-length (diffusion) analysis in single-molecule ALEX/smFRET; titration of 30S; percentage of 30S-bound ABCE1 at each concentration; 2 mM AMP-PNP, 73°C, 10 min
[2] = target: 30S ribosomal subunit from Sulfolobus solfataricus (Sulfolobus solfataricus); assay: dissociation time course by burst-length analysis in single-molecule ALEX/smFRET; 30 nM labelled ABCE1 with 25 μM AMP-PNP and 12.5 μM 30S, 73°C 10 min; then 630-fold dilution with 2 μM unlabelled ABCE1, dissociation followed at 73°C for 0-10 min; the association rate is estimated from this rate and the KD
ABCE1 = target: T1, ABCE1 (Saccharolobus solfataricus, UniProt Q980K5, K177C/T393C); assay: malachite green ATPase assay; type: biochemical; conditions: site II variant, before and after Cy3B/Atto647N labelling of the protein; 5 mM ATP, 10 mM MgCl2, pH 7.5, 80 °C
T1 construct: gene SSO0287; full length with N-terminal FeS cluster domain, C-terminal His6 tag, pSA4 vector, expressed in E. coli BL21(DE3) pRARE; about 70 kDa

Work on “ABCE1^K177C/T393C (site II variant), labelled with Cy3B and Atto647N (enzyme)” yielded a Kd [1] of 20 nM, a koff [2] of 0.00833 s⁻¹ and a kon [2] of 400000 M⁻¹ s⁻¹.

In the case of `Nc1ncnc2c1ncn2[C@@H]1O[C@H](COP(=O)(O)OP(=O)(O)OP(=O)(O)O)[C@@H](O)[C@H]1O` [ATP], the “malachite green ATPase assay” value (ABCE1) is reported as “verified by determining the basal ATP hydrolysis, which was similar to the wild type”.
